Assays:
HeLa Kyoto [1] = test: solubility in G1/S (NP-40 vs SDS abundance) (log2 ratio); higher = more soluble; details: cell cycle stage: G1/S
HeLa Kyoto [2] = test: solubility change mitosis vs G1/S (difference of NP-40 vs SDS log2 ratios) (log2 ratio difference); higher = more soluble in mitosis
HeLa Kyoto [3] = test: melting temperature (median over replicates), in situ; higher = more thermally stable
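Throughout, for melting temperature (median over replicates), in situ: HeLa Kyoto cells synchronized by double thymidine or nocodazole block, proteins quantified by TMT10plex mass spectrometry, three independent biological replicates.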
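Throughout, for solubility change mitosis vs G1/S (difference of NP-40 vs SDS log2 ratios): synchronized HeLa Kyoto cells (double thymidine block for G1/S, nocodazole release for mitosis), protein amounts in NP-40 versus SDS lysates quantified by mass spectrometry, three biological replicates.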
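Throughout, for solubility in G1/S (NP-40 vs SDS abundance): HeLa Kyoto cells arrested at G1/S by double thymidine block, proteins quantified by TMT10plex mass spectrometry in mild NP-40 versus SDS extracts, three biological replicates.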

Row | Sequence | solubility in G1/S (log2) (HeLa Kyoto [1]) | solubility change mitosis (log2) (HeLa Kyoto [2]) | melting temperature (HeLa Kyoto [3]; cell cycle stage: G1/S) [°C] | melting temperature (HeLa Kyoto [3]; cell cycle stage: mitosis) [°C]
1 | MMFRDQVGILAGWFKGWNECEQTVALLSLLKRVTRTQARFLQLCLEHSLADCNDIHLLESEANSAAIVSQWQQESKEKVVSLLLSHLPLLQPGNTEAKSEYMRLLQKVLAYSIESNAFIEESRQLLSYALIHPATTLEDRNALALWLSHLEERLASGFRSRPEPSYHSRQGSDEWGGPAELGPGEAGPGWQDKPPRENGHVPFHPSSSVPPAINSIGSNANTGLPCQIHPSPLKRSMSLIPTSPQVPGEWPSPEELGARAAFTTPDHAPLSPQSSVASSGSEQTEEQGSSRNTFQEDGSGMKDVPSWLKSLRLHKYAALFSQMSYEEMMTLTEQHLESQNVTKGARHKIALSIQKLRERQSVLKSLEKDVLEGGNLRNALQELQQIIITPIKAYSVLQATVAAATTTPTAKDGAPGEPPLPGAEPPLAHPGTDKGTEAKDPPAVENYPPPPAPAPTDGSEPAPAPVADGDIPSQFTRVMGKVCTQLLVSRPDEENITSYLQLIEKCLTHEAFTETQKKRLLSWKQQVLKLLRTFPRKAALEMQNYRQQKGWAFGSNSLPIAGSVGMGVARRTQRQFPMPPRALPPGRMGLLSPSGIGGVSPRHALTSPSLGGQGRQNLWFANPGGSNSMPSQSRSSVQRTHSLPVHSSPQAILMFPPDCPVPGPDLEINPTLESLCLSMTEHALGDGTDKTSTI [SAMD4B] | 0.549 | -0.0818 | 50.8 | 51.4
2 | MMKFKPNQTRTYDREGFKKRAACLCFRSEQEDEVLLVSSSRYPDQWIVPGGGMEPEEEPGGAAVREVYEEAGVKGKLGRLLGIFENQDRKHRTYVYVLTVTEILEDWEDSVNIGRKREWFKVEDAIKVLQCHKPVHAEYLEKLKLGCSPANGNSTVPSLPDNNALFVTAAQTSGLPSSVR [NUDT4] | 0.505 | -0.0227 |  | 49.3
3 | MMSIKAFTLVSAVERELLMGDKERVNIECVECCGRDLYVGTNDCFVYHFLLEERPVPAGPATFTATKQLQRHLGFKKPVNELRAASALNRLLVLCDNSISLVNMLNLEPVPSGARIKGAATFALNENPVSGDPFCVEVCIISVKRRTIQMFLVYEDRVQIVKEVSTAEQPLAVAVDGHFLCLALTTQYIIHNYSTGVSQDLFPYCSEERPPIVKRIGRQEFLLAGPGGLGMFATVAGISQRAPVHWSENVIGAAVSFPYVIALDDEFITVHSMLDQQQKQTLPFKEGHILQDFEGRVIVATSKGVYILVPLPLEKQIQDLLASRRVEEALVLAKGARRNIPKEKFQVMYRRILQQAGFIQFAQLQFLEAKELFRSGQLDVRELISLYPFLLPTSSSFTRSHPPLHEYADLNQLTQGDQEKMAKCKRFLMSYLNEVRSTEVANGYKEDIDTALLKLYAEADHDSLLDLLVTENFCLLTDSAAWLEKHKKYFALGLLYHYNNQDAAAVQLWVNIVNGDVQDSTRSDLYEYIVDFLTYCLDEELVWAYADWVLQKSEEVGVQVFTKRPLDEQQKNSFNPDDIINCLKKYPKALVKYLEHLVIDKRLQKEEYHTHLAVLYLEEVLLQRASASGKGAEATETQAKLRRLLQKSDLYRVHFLLERLQGAGLPMESAILHGKLGEHEKALHILVHELQDFAAAEDYCLWCSEGRDPPHRQQLFHTLLAIYLHAGPTAHELAVAAVDLLNRHATEFDAAQVLQMLPDTWSVQLLCPFLMGAMRDSIHARRTMQVALGLARSENLIYTYDKMKLKGSSIQLSDKKLCQICQNPFCEPVFVRYPNGGLVHTHCAASRHTNPSSSSPGTRT [TGFBRAP1] | -0.0452 | -0.0966 |  | 51.1
4 | MNNLNDPPNWNIRPNSRADGGDGSRWNYALLVPMLGLAAFRWIWSRESQKEVEKEREAYRRRTAAFQQDLEAKYHAMISENRRAVAQLSLELEKEQNRTASYREALISQGRKLVEEKKLLEQERAQVMQEKRQVQPLRSAYLSCLQREENWQRRARLLLKEFEAVLTERQNIYCSLFLPRSKRLEIEKSLLVRASVDPVAADLEMAAGLTDIFQHDTYCGDVWNTNKRQNGRLMWLYLKYWELVVELKKFKRVEEAILEK [CCDC127] | 0.0789 | 0.115 | 54 | 52.5
5 | MNRVNDPLIFIRDIKPGLKNLNVVFIVLEIGRVTKTKDGHEVRSCKVADKTGSITISVWDEIGGLIQPGDIIRLTRGYASMWKGCLTLYTGRGGELQKIGEFCMVYSEVPNFSEPNPDYRGQQNKGAQSEQKNNSMNSNMGTGTFGPVGNGVHTGPESREHQFSHAGRSNGRGLINPQLQGTASNQTVMTTISNGRDPRRAFKR [NABP1] | 0.0163 | -0.222 |  | 50.7

Reference: the supplement of paper PMC5998384
